These results are taken from patent US20180291110A1.

For this experiment, the target named is complement factor C1q (Sigma, C1740) (UniProt P02745). The experiment can be described thus: flow cytometry, C1q on antibody-coated BT-474 cells. Background: Flow cytometry measures light scatter and fluorescence of single cells or particles in a stream.
Chain of complement factor C1q (Sigma, C1740) (P02745 23-245, chain 1 of 3): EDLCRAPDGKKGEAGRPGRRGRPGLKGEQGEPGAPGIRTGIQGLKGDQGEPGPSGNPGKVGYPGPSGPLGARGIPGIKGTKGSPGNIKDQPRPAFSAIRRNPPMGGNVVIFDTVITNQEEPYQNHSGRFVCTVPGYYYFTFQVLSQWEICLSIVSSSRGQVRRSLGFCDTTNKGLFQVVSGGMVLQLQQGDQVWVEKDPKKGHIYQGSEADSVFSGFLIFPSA
Chain of complement factor C1q (Sigma, C1740) (P02746 28-253, chain 2 of 3, further chain): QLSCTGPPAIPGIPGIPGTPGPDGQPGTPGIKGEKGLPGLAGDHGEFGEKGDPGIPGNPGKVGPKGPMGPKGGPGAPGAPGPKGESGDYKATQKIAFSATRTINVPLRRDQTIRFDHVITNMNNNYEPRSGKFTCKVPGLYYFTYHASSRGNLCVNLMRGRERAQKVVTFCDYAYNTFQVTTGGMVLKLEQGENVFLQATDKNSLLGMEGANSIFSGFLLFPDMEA
Chain of complement factor C1q (Sigma, C1740) (P02747 29-245, chain 3 of 3, further chain): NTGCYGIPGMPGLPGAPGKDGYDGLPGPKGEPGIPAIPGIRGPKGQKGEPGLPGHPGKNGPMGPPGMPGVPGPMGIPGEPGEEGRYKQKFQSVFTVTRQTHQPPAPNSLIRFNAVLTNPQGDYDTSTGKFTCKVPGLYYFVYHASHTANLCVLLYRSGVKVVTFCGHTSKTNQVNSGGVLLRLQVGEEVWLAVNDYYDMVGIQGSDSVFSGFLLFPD

As for “combination of trastuzumab and pertuzumab”, the PE-signal (geomean) turned out to be 2160.
